In this assay the target is T1, … 3 (SEP3), in vitro produced (Arabidopsis), O22456.
T1 chain: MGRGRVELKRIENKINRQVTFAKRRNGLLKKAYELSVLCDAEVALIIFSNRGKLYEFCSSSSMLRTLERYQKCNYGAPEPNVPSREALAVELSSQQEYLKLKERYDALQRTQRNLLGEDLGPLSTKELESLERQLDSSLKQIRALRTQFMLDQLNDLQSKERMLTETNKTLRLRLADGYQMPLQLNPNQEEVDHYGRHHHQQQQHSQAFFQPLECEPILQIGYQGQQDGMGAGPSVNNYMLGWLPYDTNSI
Kind of assay: native gel or EMSA; in vitro produced proteins (wheat germ TnT) mixed with a DY-682 labelled ~100 bp DNA probe containing a CArG-box (SAUR10 probe); protein complexes read from the shifted bands on DNA; anti-FLAG antibody added for supershift where FUL-FLAG was used. The settings on record: remark: other sources report otherwise. On the technique in general: Mobility shift assays separate free from complexed probe on a gel.

By stoichiometry N is commonly meant the number of molecules, sites or subunits per partner or assembly.

B1: … 3 (SEP3), in vitro produced, O22456 1-251 (natural protein)
chain: MGRGRVELKRIENKINRQVTFAKRRNGLLKKAYELSVLCDAEVALIIFSNRGKLYEFCSSSSMLRTLERYQKCNYGAPEPNVPSREALAVELSSQQEYLKLKERYDALQRTQRNLLGEDLGPLSTKELESLERQLDSSLKQIRALRTQFMLDQLNDLQSKERMLTETNKTLRLRLADGYQMPLQLNPNQEEVDHYGRHHHQQQQHSQAFFQPLECEPILQIGYQGQQDGMGAGPSVNNYMLGWLPYDTNSI
Turning to B1, the stoichiometry N was 2.

The values above are taken from article PMC11602133.
